The text below walks through data of patent publication US20140011978A1 (EPFL TTO, published 2014).

T1: TNC III1-5 (human, UniProt P24821 622-1074)
T1 construct: The secreted protein in the assays lacks the leader; also called TG-TNC III1-5; engineered TNC III1-5
T1 sequence: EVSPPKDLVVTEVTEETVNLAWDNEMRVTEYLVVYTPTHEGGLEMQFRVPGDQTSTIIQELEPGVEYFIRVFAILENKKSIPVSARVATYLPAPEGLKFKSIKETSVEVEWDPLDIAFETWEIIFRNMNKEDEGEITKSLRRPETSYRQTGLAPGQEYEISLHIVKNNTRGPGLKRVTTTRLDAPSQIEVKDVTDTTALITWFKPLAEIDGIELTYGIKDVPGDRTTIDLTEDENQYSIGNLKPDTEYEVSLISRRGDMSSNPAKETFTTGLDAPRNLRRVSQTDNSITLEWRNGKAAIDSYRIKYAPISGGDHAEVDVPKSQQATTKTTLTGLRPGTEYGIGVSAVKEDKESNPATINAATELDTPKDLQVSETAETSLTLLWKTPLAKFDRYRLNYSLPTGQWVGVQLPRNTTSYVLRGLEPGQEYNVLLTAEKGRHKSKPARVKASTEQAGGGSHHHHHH

B1: EGF (ligand)
chain: NSDSECPLSHDGYCLHDGVCMYIEALDKYACNCVVGYIGERCQYRDLKWWELR
B2: TGF-β3 (ligand)
chain: ALDTNYCFRNLEENCCVRPLYIDFRQDLGWKWVHEPKGYYANFCSGPCPYLRSADTTHSTVLGLYNTLNPEASASPCCVPQDLEPLTILYYVGRTPKVEQLSNMVVKSCKCS
modifications: Natural form is a disulfide-linked homodimer; one protomer is given.
B3: FGF-20 (ligand)
chain: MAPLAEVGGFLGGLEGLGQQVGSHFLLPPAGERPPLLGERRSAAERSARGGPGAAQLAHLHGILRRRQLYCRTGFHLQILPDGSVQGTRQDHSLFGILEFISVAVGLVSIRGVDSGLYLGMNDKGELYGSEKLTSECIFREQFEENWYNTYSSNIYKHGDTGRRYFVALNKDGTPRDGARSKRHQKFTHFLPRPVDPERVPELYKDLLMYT
B4: TNC III3 (other, human, UniProt P24821 805-894, looked up)
GST fusion: APSQIEVKDVTDTTALITWFKPLAEIDGIELTYGIKDVPGDRTTIDLTEDENQYSIGNLKPDTEYEVSLISRRGDMSSNPAKETFTTGLD
notes: domain fragment; also called TNC III3 fused to GST
B5: TNC III4 (other, human, UniProt P24821 895-990, looked up)
GST fusion: APRNLRRVSQTDNSITLEWRNGKAAIDSYRIKYAPISGGDHAEVDVPKSQQATTKTTLTGLRPGTEYGIGVSAVKEDKESNPATINAATELDTPKD
notes: domain fragment; also called TNC III4 fused to GST
B6: TNC III5 fused to GST (other, human, UniProt P24821 991-1074, looked up)
chain: LQVSETAETSLTLLWKTPLAKFDRYRLNYSLPTGQWVGVQLPRNTTSYVLRGLEPGQEYNVLLTAEKGRHKSKPARVKASTEQA
notes: domain: TNC III5; also called domain TNC III5; not shown: GST
B7: BDNF (ligand, UniProt P23560 129-247, looked up)
chain: HSDPARRGELSVCDSISEWVTAADKKTAVDMSGGTVTVLEKVPVSKGQLKQYFYETKCNPMGYTKEGCRGIDKRHWNSQCRTTQSYVRALTMDSKKRIGWRFIRIDTSCVCTLTIKRGR
notes: also called brain-derived neurotrophic factor
B8: BMP-2 (ligand, UniProt P12643 283-396, looked up)
chain: QAKHKQRKRLKSSCKRHPLYVDFSDVGWNDWIVAPPGYHAFYCHGECPFPLADHLNSTNHAIVQTLVNSVNSKIPKACCVPTELSAISMLYLDENEKVVLKNYQDMVVEGCGCR
B9: PlGF-2 (ligand, UniProt P49763-3 19-170, looked up)
chain: LPAVPPQQWALSAGNGSSEVEVVPFQEVWGRSYCRALERLVDVVSEYPSEVEHMFSPSCVSLLRCTGCCGDENLHCVPVETANVTMQLLKIRSGDRPSYVELTFSQHVRCECRPLREKMKPERRRPKGRGKRRREKQRPTDCHLCGDAVPRR
B10: VEGF-C (ligand, UniProt P49767 112-227, looked up)
chain: AHYNTEILKSIDNEWRKTQCMPREVCIDVGKEFGVATNTFFKPPCVSVYRCGGCCNSEGLQCMNTSTSYLSKTLFEITVPLSQGPKPVTISFANHTSCRCMSKLDVYRQVHSIIRR
B11: FGF-4 (ligand, UniProt P08620 31-206, looked up)
chain: APTAPNGTLEAELERRWESLVALSLARLPVAAQPKEAAVQSGAGDYLLGIKRLRRLYCNVGIGFHLQALPDGRIGGAHADTRDSLLELSPVERGVVSIFGVASRFFVAMSSKGKLYGSPFFTDECTFKEILLPNNYNAYESYKYPGMFIALSKNGKTKKGNRVSPTMKVTHFLPRL
B12: FGF-18 (ligand, UniProt O76093 28-207, looked up)
chain: EENVDFRIHVENQTRARDDVSRKQLRLYQLYSRTSGKHIQVLGRRISARGEDGDKYAQLLVETDTFGSQVRIKGKETEFYLCMNRKGKLVGKPDGTSKECVFIEKVLENNYTALMSAKYSGWYVGFTKKGRPRKGPKTRENQQDVHFMKRYPKGQPELQKPFKYTTVTKRSRRIRPTHPA
B13: FGF-6 (ligand, UniProt P10767 38-208, looked up)
chain: SPAGTRANNTLLDSRGWGTLLSRSRAGLAGEIAGVNWESGYLVGIKRQRRLYCNVGIGFHLQVLPDGRISGTHEENPYSLLEISTVERGVVSLFGVRSALFVAMNSKGRLYATPSFQEECKFRETLLPNNYNAYESDLYQGTYIALSKYGRVKRGSKVSPIMTVTHFLPRI
B14: TGF-β2 (ligand, UniProt P61812 303-414, looked up)
chain: ALDAAYCFRNVQDNCCLRPLYIDFKRDLGWKWIHEPKGYNANFCAGACPYLWSSDTQHSRVLSLYNTINPEASASPCCVSQDLEPLTILYYIGKTPKIEQLSNMIVKSCKCS
B15: VEGF-A165 (ligand, UniProt P15692-4 27-191, looked up)
chain: APMAEGGGQNHHEVVKFMDVYQRSYCHPIETLVDIFQEYPDEIEYIFKPSCVPLMRCGGCCNDEGLECVPTEESNITMQIMRIKPHQGQHIGEMSFLQHNKCECRPKKDRARQENPCGPCSERRKHLFVQDPQTCKCSCKNTDSRCKARQLELNERTCRCDKPRR
B16: FGF-10 (ligand, UniProt O15520 38-208, looked up)
chain: QALGQDMVSPEATNSSSSSFSSPSSAGRHVRSYNHLQGDVRWRKLFSFTKYFLKIEKNGKVSGTKKENCPYSILEITSVEIGVVAVKAINSNYYLAMNKKGKLYGSKEFNNDCKLKERIEENGYNTYASFNWQHNGRQMYVALNGKGAPRRGQKTRRKNTSAHFLPMVVHS
B17: FGF-7 (ligand, UniProt P21781 32-194, looked up)
chain: CNDMTPEQMATNVNCSSPERHTRSYDYMEGGDIRVRRLFCRTQWYLRIDKRGKVKGTQEMKNNYNIMEIRTVAVGIVAIKGVESEFYLAMNKEGKLYAKKECNEDCNFKELILENHYNTYASAKWTHNGGEMFVALNQKGIPVRGKKTKKEQKTAHFLPMAIT
B18: FGF-17 (ligand, UniProt O60258 23-216, looked up)
chain: TQGENHPSPNFNQYVRDQGAMTDQLSRRQIREYQLYSRTSGKHVQVTGRRISATAEDGNKFAKLIVETDTFGSRVRIKGAESEKYICMNKRGKLIGKPSGKSKDCVFTEIVLENNYTAFQNARHEGWFMAFTRQGRPRQASRSRQNQREAHFIKRLYQGQLPFPNHAEKQKQFEFVGSAPTRRTKRTRRPQPLT

In the first assay the target is T1, TNC III1-5. Description: ELISA: cytokine coated (50 nM), 100 nM TNC III1-5 in solution, HRP-anti-His, A450. On the procedure:
(§1) ELISA plates were coated with cytokines or BSA and further incubated with TNC III1-5 to analyze binding of TNC III1-5 to a wide variety of cytokines. […] A large amount of heparin (4 μM) impaired binding of TNC III1-5 to these cytokines. Results are depicted in FIG. 3. Method: 50 nM of cytokine was coated for (1 hr, 37° C.). After blocking with 2% BSA (1 hr, RT). 100 nM TNC III1-5 was applied in PBST (0.05% tween, 0.1% bovine serum albumin (BSA)) (1 hr, RT). TNC III1-5 was detected with horseradish peroxidase (HRP)-anti-HIS in PBST (1 hr, RT) and developed with 3,3′,5,5′-tetramethylbenzidine (TMB), a soluble colorimetric HRP […]. Addition of sulfuric acid stop solution changes the color to yellow, enabling accurate measurement of the intensity at 450 nm using a spectrophotometer or plate reader. […] Heparin (4 μM) was added to TNC III1-5 to test the effect of blocking the heparin binding site of TNC III1-5, which has been defined as domain TNC III5 (Weber, Zimmermann, et al., 1995).
With B1, the binding result is recorded as “no binding (tested: 100 nM)”.

Consider B2, for which the binding result is “no binding (tested: 100 nM)”. Turning to B3, the binding result is “no binding (tested: 100 nM)”.

Another assay deals with T2, PDGF-BB (UniProt P01127 82-190).
T2 construct: The name implies a homodimer of B chains
T2 sequence (P01127 82-190 limits assumed): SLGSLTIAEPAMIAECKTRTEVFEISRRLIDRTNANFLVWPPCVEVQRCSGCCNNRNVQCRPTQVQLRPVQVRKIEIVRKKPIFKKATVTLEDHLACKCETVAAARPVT
Description: ELISA: GST-fused TNC domains, GST and BSA coated, 2 nM PDGF-BB in solution, anti-PDGF-BB antibody and HRP secondary, A450. The procedure: An ELISA was performed to test the affinity of different domains present in TNC1-5 to PDGF-BB as an example cytokine that has shown to bind TNC III1-5. Domain TNC III5 was defined to be responsible for cytokine binding. Method: ELISA plates were coated with individual TNC domains fused to GST, as well as GST and BSA. Wells were blocked with BSA and then incubated with 2 nM PDGF-BB. Binding of PDGF-BB was detected using an anti-PDGF-BB antibody and then a secondary horseradish peroxidase conjugated antibody.
In general terms: An ELISA detects its analyte on a solid surface through an enzyme-linked reagent.
As for B4, the binding result is “no binding (tested: 2 nM PDGF-BB)”. B5: the binding result was “binds”. Consider B6, for which the binding result is “binds”.

The next assay addresses T1, TNC III1-5. Briefly: ELISA: cytokine coated (50 nM), 100 nM TNC III1-5 in solution, HRP-anti-His, A450; black bars without, white bars with 4 µM heparin. On the procedure: as §1
For the molecule B7, the binding result is given as “binds”. On to B8, for which the binding result is given as “binds”.

Turning to B9, the binding result is recorded as “binds”.

Take B10: the binding result is given as “binds”. Same read-out and setting: with B11 the entry was “binds”.

As for B12, the binding result is on record as “binds”. On to B13, for which the binding result is on record as “binds”. On to B14, for which the binding result is “binds”. Turning to B15, the binding result is “binds”. Turning to B16, the binding result is given as “binds”. As to B17, the binding result was “binds”.

For the molecule B18, the binding result is recorded as “binds”.
